Source: US20130217572A1, “SPECIFIC DELIVERY OF AGROCHEMICALS” (VRIJE UNIVERSITEIT BRUSSEL, priority 2010, published 2013)

T1: potato lectin (Sigma) (potato, UniProt Q9S8M0 23-323)
T1 construct: Bought glycoprotein, coated on ELISA plates
T1 sequence (looked up): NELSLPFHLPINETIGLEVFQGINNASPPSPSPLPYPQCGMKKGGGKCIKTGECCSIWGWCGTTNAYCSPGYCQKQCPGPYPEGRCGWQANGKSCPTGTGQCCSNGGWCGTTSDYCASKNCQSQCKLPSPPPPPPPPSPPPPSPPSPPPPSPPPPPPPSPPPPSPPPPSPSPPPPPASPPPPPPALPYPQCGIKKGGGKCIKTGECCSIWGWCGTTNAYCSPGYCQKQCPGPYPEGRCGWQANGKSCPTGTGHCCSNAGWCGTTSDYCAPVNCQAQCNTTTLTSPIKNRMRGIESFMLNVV

T2: potato lectin (Solanum tuberosum, UniProt Q9S8M0)
T2 sequence (Q9S8M0 23-323): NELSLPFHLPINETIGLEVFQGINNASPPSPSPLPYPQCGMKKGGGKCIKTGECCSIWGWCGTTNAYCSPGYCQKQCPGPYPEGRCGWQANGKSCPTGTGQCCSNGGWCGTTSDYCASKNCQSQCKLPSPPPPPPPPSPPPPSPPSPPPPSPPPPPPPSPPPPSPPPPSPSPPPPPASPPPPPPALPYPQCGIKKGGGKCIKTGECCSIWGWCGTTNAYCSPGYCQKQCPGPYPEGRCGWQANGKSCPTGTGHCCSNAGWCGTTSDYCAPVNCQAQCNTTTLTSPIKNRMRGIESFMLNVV


Experiments:
potato lectin (Sigma) [1] = molecular target: T1, potato lectin (Sigma); assay: microcapsule retention; G: amine capsules, BS3 one-step, 1 ug VHH/cm2; potato lectin coat 100 ug/ml; 10% coverage
potato lectin (Sigma) [2] = molecular target: T1, potato lectin (Sigma); assay: microcapsule retention; K: amine capsules, BS3 two-step, 1 ug VHH/cm2; potato lectin coat 100 ug/ml; 10% coverage
potato lectin (Sigma) [3] = molecular target: T1, potato lectin (Sigma); assay: microcapsule retention; H: amine capsules, BS3 one-step, 0.1 ug VHH/cm2; potato lectin coat 10 ug/ml; 10% coverage
potato lectin (Sigma) [4] = molecular target: T1, potato lectin (Sigma); assay: microcapsule retention; K: amine capsules, BS3 two-step, 1 ug VHH/cm2; potato lectin coat 100 ug/ml; 100% coverage
potato lectin (Sigma) [5] = molecular target: T1, potato lectin (Sigma); assay: microcapsule retention; L: amine capsules, BS3 two-step, 0.1 ug VHH/cm2; potato lectin coat 100 ug/ml; 10% coverage
potato lectin (Sigma) [6] = molecular target: T1, potato lectin (Sigma); assay: microcapsule retention; L: amine capsules, BS3 two-step, 0.1 ug VHH/cm2; potato lectin coat 100 ug/ml; 100% coverage
potato lectin (Sigma) [7] = molecular target: T1, potato lectin (Sigma); assay: microcapsule retention; D: carboxyl capsules, EDC/Sulfo-NHS, 0.1 ug VHH/cm2; potato lectin coat 1 ug/ml; 10% coverage
[8] = test system: black nightshade leaf surface; assay: VHH binding to leaf discs (microscopy); details: 5 μg/ml in PBS, anti-histidine Alexa-488 detection
Description: (§1) VHH binding to non-fixed leaf discs of potato (variety Désirée), black nightshade, grass, wheat or azalea was investigated. For comparison, binding of CBM3a to non-fixed leaf discs of potato (variety Désirée) was analyzed in parallel. Leaf discs were prepared by punching a fresh potato leaf with a 5 mm belt hole puncher tool. Leaf discs were put immediately in wells of a 96-well plate containing 200 μl per well 5% MPBS or PBS, and incubated for 30 minutes. Leaf discs were transferred to solutions containing 5 μg/ml VHH antibody fragment, respectively 5 μg/ml CBM3a in 2% MPBS or PBS and incubated for 60-90 minutes. Unbound VHH or CBM3a proteins were removed by washing three times with 2% MPBS or PBS. Bound VHH or CBM3a proteins were detected with incubation with monoclonal mouse anti-histidine antibodies directly conjugated with Alexa-488 fluorescent dye (Abd Serotec) in 1% MPBS for 1 hour. Unbound antibodies were removed by washing three times with PBS. Leaf discs were put on glass slides, covered with cover slips, and analyzed by microscopy or on a macrozoom microscope system (Nikon) or a SP5 confocal microscope system (Leica).

grass leaf surface = assay: VHH binding to leaf discs (microscopy); details: 5 μg/ml in PBS, anti-histidine Alexa-488 detection
Description: as §1

potato leaf discs = assay: VHH binding at different temperatures; set-up: species or system potato (variety Désirée); details: 5 μg/ml in PBS; temperature range from 4° C. to 55° C.
Description: In order to test applicability of VHH as binders for greenhouse or field applications where binding supposedly may occur at different and sometimes even extreme temperatures, a leaf dip VHH binding experiment at different temperatures was used. Temperatures used were 4° C., room temperature, 37° C., 55° C., or 70° C. ø 8 mm potato leaf discs (variety Désirée) were cut using a puncher tool. The leaf discs were equilibrated to different temperatures by washing three times with PBS at different temperatures. Hexahistidine-tagged VHH were diluted to 5 μg/ml in PBS at different temperatures, added to the corresponding equilibrated leaf discs, and binding of VHH was allowed for 1 hour at different temperatures. After incubation with VHH, leaf discs were washed five times with PBS at room temperature. Bound VHH were detected by incubation with monoclonal mouse anti-histidine antibodies directly conjugated with Alexa-488 fluorescent dye (Abd Serotec) in PBS for 1 hour at room temperature. Unbound anti-histidine antibodies were removed by washing five times with PBS at room temperature. Leaf discs were analyzed for bound VHH with microscopy. […] Please note that leaf discs severely suffer when submerged in PBS at 70° C. for 1 hour but that binding of VHH was still detected.

potato lectin = molecular target: T2, potato lectin; assay: ELISA-like assay of VHH-coupled microcapsules on antigen-coated wells; details: microcapsule binding assays
Description: An ELISA-like assay setup was used to evaluate the interaction of VHH-coupled microcapsules to antigen-containing surfaces. ELISA plates (Maxisorp (Thermo Scientific Nunc) or high bind half area microplates (Greiner Bio-One)) were coated with gum arabic or potato lectin. Coatings were performed overnight with 100 μg/ml gum arabic or potato lectin in PBS. Control wells included blank wells or wells coated with unrelated antigens. Plates were washed three times with PBS with 0.05%-TWEEN®-20 and blocked with 5% skimmed milk in PBS for 1 to 2 hours. VHH-coupled lambda cyhalothrin-containing or Uvitex-containing microcapsules were diluted to appropriate densities in 1% skimmed milk in PBS with 0.05%-TWEEN®-20. Microcapsules were added to the antigen-coated or control wells and allowed to bind for 1 hour. Unbound microcapsules were removed by washing five times with PBS with 0.05%-TWEEN®-20. The bottoms of ELISA plate wells were analyzed for bound microcapsules on a macrozoom microscope system (Nikon). Microcapsules were counted using Volocity image analysis software (Perkin Elmer). A DAPI filter was used to visualize Uvitex microcapsules. White LED illumination and bright field pictures were used for lambda cyhalothrin microcapsules. Controls for lambda cyhalothrin-containing or Uvitex-containing microcapsules included blank microcapsules and microcapsules to which unrelated VHH were coupled.

unrelated antigens [9] = assay: VHH-coupled Uvitex microcapsules retained on wells coated with unrelated antigen; 4% surface coverage
unrelated antigens [10] = assay: VHH-coupled Uvitex microcapsules retained on wells coated with unrelated antigen; 100% surface coverage
unrelated antigens [11] = assay: VHH-coupled lambda-cyhalothrin microcapsules retained on wells coated with unrelated antigen; 100% surface coverage

| microcapsule counts (microcapsules) (potato lectin (Sigma) [1]) | microcapsule counts (microcapsules) (potato lectin (Sigma) [2]) | microcapsule counts (microcapsules) (potato lectin (Sigma) [3]) | microcapsule counts (microcapsules) (potato lectin (Sigma) [4]) | microcapsule counts (microcapsules) (potato lectin (Sigma) [5]) | microcapsule counts (microcapsules) (potato lectin (Sigma) [6]) | microcapsule counts (microcapsules) (potato lectin (Sigma) [7]) | Molecule | binding to native black nightshade leaf surface [8] | binding to native black nightshade leaf surface ([8]; listed as 3E6) | binding to native grass leaf surface (grass leaf surface) | binding to native grass leaf surface (grass leaf surface; listed as 3E6) | binding to leaf discs at different temperatures (potato leaf discs) | binding to antigen-coated surfaces when coupled to a microcapsule (potato lectin) | binding to surfaces with unrelated antigens when coupled to a microcapsule (potato lectin) | surface area of bound microcapsules (unrelated antigens [9]) | surface area of bound microcapsules (unrelated antigens [10]) | counts of bound microcapsules (microcapsules) (unrelated antigens [11]) |
| --- | --- | --- | --- | --- | --- | --- | --- | --- | --- | --- | --- | --- | --- | --- | --- | --- | --- |
| 36 | 285 | 215 | 866 | 248 | 1110 | 64 | Control VHH | – | – | – | – | – | – | – | – | – | – |
| – | – | – | – | – | – | – | VHH 3E6 (VHH, also called Monovalent VHH 3E6) VHH: QVQLQESGGGLVQPGGTLSLSCAASGFNVRWYGMGWFRQAPGKEREGVACISALQETTAYADSVKGRFTLSRDNPKNTLSLQMNNLQPEDTGVYYCATTDCDDSSRMTYTSYLGQGTQVTVSS | binding leaf surface, glandular trichomes, and leaf hairs | bind specifically | binding to leaf surface and wounded plant tissue | bind specifically | showed detectable binding | capable of binding specifically to antigen-coated surfaces | No significant binding | 5.01 | 69.5 | 861 |
